Results from patent US20150344570A1 (published 2015).

T1: FcγRIIb (human, UniProt P31994 43-217)
T1 construct: extracellular domain; also called FcgRIIb; 2b; not shown: His tag at the C terminus
T1 sequence (looked up): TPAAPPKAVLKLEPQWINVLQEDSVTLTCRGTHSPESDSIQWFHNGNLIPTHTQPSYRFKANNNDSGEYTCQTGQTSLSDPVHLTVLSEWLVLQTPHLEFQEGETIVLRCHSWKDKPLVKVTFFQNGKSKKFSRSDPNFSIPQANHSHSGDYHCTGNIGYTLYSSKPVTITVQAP

T2: FcγRIIa H (human, UniProt P12318 34-217)
T2 construct: extracellular domain; also called FcgRIIa H; 2aH; not shown: His tag at the C terminus
T2 sequence (looked up): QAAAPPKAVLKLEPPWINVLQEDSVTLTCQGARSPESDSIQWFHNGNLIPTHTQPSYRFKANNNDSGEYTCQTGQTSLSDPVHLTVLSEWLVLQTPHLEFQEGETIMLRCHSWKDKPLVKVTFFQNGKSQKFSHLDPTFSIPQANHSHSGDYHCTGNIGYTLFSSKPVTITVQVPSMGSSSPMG

B1: GpH7-A5/GpH7-B3 variant I336_19Q/GpL16-k0 (antibody, human IgG1, kappa)
heavy 1: not shown
heavy 2: not shown
light: DIVMTQSPLSLPVTPGEPASISCQASESLVHSNRNTYLHWYLQKPGQSPQLLIYKVSNRFSGVPDRFSGSGSGTDFTLKISRVEAEDVGVYYCSQNTHVPPTFGQGTKVEIERTVAAPSVFIFPPSDEQLKSGTASVVCLLNNFYPREAKVQWKVDNALQSGNSQESVTEQDSKDSTYSLSSTLTLSKADYEKHKVYACEVTHQGLSSPVTKSFNRGEC
notes: He Ab: mutation in the GpH7-B3 H chain only
B2: GpH7-A5/GpH7-B3 variant P329_04F/GpL16-k0 (antibody, human IgG1, kappa)
heavy 1: not shown
heavy 2: not shown
light: DIVMTQSPLSLPVTPGEPASISCQASESLVHSNRNTYLHWYLQKPGQSPQLLIYKVSNRFSGVPDRFSGSGSGTDFTLKISRVEAEDVGVYYCSQNTHVPPTFGQGTKVEIERTVAAPSVFIFPPSDEQLKSGTASVVCLLNNFYPREAKVQWKVDNALQSGNSQESVTEQDSKDSTYSLSSTLTLSKADYEKHKVYACEVTHQGLSSPVTKSFNRGEC
notes: as for B1
B3: GpH7-A5/GpH7-B3 variant P329_02A/GpL16-k0 (antibody, human IgG1, kappa)
heavy 1: not shown
heavy 2: not shown
light: DIVMTQSPLSLPVTPGEPASISCQASESLVHSNRNTYLHWYLQKPGQSPQLLIYKVSNRFSGVPDRFSGSGSGTDFTLKISRVEAEDVGVYYCSQNTHVPPTFGQGTKVEIERTVAAPSVFIFPPSDEQLKSGTASVVCLLNNFYPREAKVQWKVDNALQSGNSQESVTEQDSKDSTYSLSSTLTLSKADYEKHKVYACEVTHQGLSSPVTKSFNRGEC
notes: as for B1
B4: GpH7-A5/GpH7-B3 variant P329_12R/GpL16-k0 (antibody, human IgG1, kappa)
heavy 1: not shown
heavy 2: not shown
light: DIVMTQSPLSLPVTPGEPASISCQASESLVHSNRNTYLHWYLQKPGQSPQLLIYKVSNRFSGVPDRFSGSGSGTDFTLKISRVEAEDVGVYYCSQNTHVPPTFGQGTKVEIERTVAAPSVFIFPPSDEQLKSGTASVVCLLNNFYPREAKVQWKVDNALQSGNSQESVTEQDSKDSTYSLSSTLTLSKADYEKHKVYACEVTHQGLSSPVTKSFNRGEC
notes: He Ab: P329R (EU numbering) in the GpH7-B3 H chain only; also called GpH7-A5/GpH7-B12/GpL16-k0
B5: GpH7-A5/GpH7-B3 variant P329_11K/GpL16-k0 (antibody, human IgG1, kappa)
heavy 1: not shown
heavy 2: not shown
light: DIVMTQSPLSLPVTPGEPASISCQASESLVHSNRNTYLHWYLQKPGQSPQLLIYKVSNRFSGVPDRFSGSGSGTDFTLKISRVEAEDVGVYYCSQNTHVPPTFGQGTKVEIERTVAAPSVFIFPPSDEQLKSGTASVVCLLNNFYPREAKVQWKVDNALQSGNSQESVTEQDSKDSTYSLSSTLTLSKADYEKHKVYACEVTHQGLSSPVTKSFNRGEC
notes: He Ab: P329K (EU numbering) in the GpH7-B3 H chain only; also called GpH7-A5/GpH7-B13/GpL16-k0
B6: GpH7-A5/GpH7-B3 variant N325_11K/GpL16-k0 (antibody, human IgG1, kappa)
heavy 1: not shown
heavy 2: not shown
light: DIVMTQSPLSLPVTPGEPASISCQASESLVHSNRNTYLHWYLQKPGQSPQLLIYKVSNRFSGVPDRFSGSGSGTDFTLKISRVEAEDVGVYYCSQNTHVPPTFGQGTKVEIERTVAAPSVFIFPPSDEQLKSGTASVVCLLNNFYPREAKVQWKVDNALQSGNSQESVTEQDSKDSTYSLSSTLTLSKADYEKHKVYACEVTHQGLSSPVTKSFNRGEC
notes: as for B1
B7: GpH7-A5/GpH7-B3 variant P329_06M/GpL16-k0 (antibody, human IgG1, kappa)
heavy 1: not shown
heavy 2: not shown
light: DIVMTQSPLSLPVTPGEPASISCQASESLVHSNRNTYLHWYLQKPGQSPQLLIYKVSNRFSGVPDRFSGSGSGTDFTLKISRVEAEDVGVYYCSQNTHVPPTFGQGTKVEIERTVAAPSVFIFPPSDEQLKSGTASVVCLLNNFYPREAKVQWKVDNALQSGNSQESVTEQDSKDSTYSLSSTLTLSKADYEKHKVYACEVTHQGLSSPVTKSFNRGEC
notes: as for B1
B8: GpH7-A5/GpH7-B3 variant I336_20W/GpL16-k0 (antibody, human IgG1, kappa)
heavy 1: not shown
heavy 2: not shown
light: DIVMTQSPLSLPVTPGEPASISCQASESLVHSNRNTYLHWYLQKPGQSPQLLIYKVSNRFSGVPDRFSGSGSGTDFTLKISRVEAEDVGVYYCSQNTHVPPTFGQGTKVEIERTVAAPSVFIFPPSDEQLKSGTASVVCLLNNFYPREAKVQWKVDNALQSGNSQESVTEQDSKDSTYSLSSTLTLSKADYEKHKVYACEVTHQGLSSPVTKSFNRGEC
notes: as for B1
B9: GpH7-A5/GpH7-B3 variant P329_14T/GpL16-k0 (antibody, human IgG1, kappa)
heavy 1: not shown
heavy 2: not shown
light: DIVMTQSPLSLPVTPGEPASISCQASESLVHSNRNTYLHWYLQKPGQSPQLLIYKVSNRFSGVPDRFSGSGSGTDFTLKISRVEAEDVGVYYCSQNTHVPPTFGQGTKVEIERTVAAPSVFIFPPSDEQLKSGTASVVCLLNNFYPREAKVQWKVDNALQSGNSQESVTEQDSKDSTYSLSSTLTLSKADYEKHKVYACEVTHQGLSSPVTKSFNRGEC
notes: as for B1
B10: GpH7-A5/GpH7-B3 variant P329_08L/GpL16-k0 (antibody, human IgG1, kappa)
heavy 1: not shown
heavy 2: not shown
light: DIVMTQSPLSLPVTPGEPASISCQASESLVHSNRNTYLHWYLQKPGQSPQLLIYKVSNRFSGVPDRFSGSGSGTDFTLKISRVEAEDVGVYYCSQNTHVPPTFGQGTKVEIERTVAAPSVFIFPPSDEQLKSGTASVVCLLNNFYPREAKVQWKVDNALQSGNSQESVTEQDSKDSTYSLSSTLTLSKADYEKHKVYACEVTHQGLSSPVTKSFNRGEC
notes: as for B1
B11: GpH7-A5/GpH7-B3 variant P329_13S/GpL16-k0 (antibody, human IgG1, kappa)
heavy 1: not shown
heavy 2: not shown
light: DIVMTQSPLSLPVTPGEPASISCQASESLVHSNRNTYLHWYLQKPGQSPQLLIYKVSNRFSGVPDRFSGSGSGTDFTLKISRVEAEDVGVYYCSQNTHVPPTFGQGTKVEIERTVAAPSVFIFPPSDEQLKSGTASVVCLLNNFYPREAKVQWKVDNALQSGNSQESVTEQDSKDSTYSLSSTLTLSKADYEKHKVYACEVTHQGLSSPVTKSFNRGEC
notes: as for B1
B12: GpH7-A5/GpH7-B3 variant P329_07I/GpL16-k0 (antibody, human IgG1, kappa)
heavy 1: not shown
heavy 2: not shown
light: DIVMTQSPLSLPVTPGEPASISCQASESLVHSNRNTYLHWYLQKPGQSPQLLIYKVSNRFSGVPDRFSGSGSGTDFTLKISRVEAEDVGVYYCSQNTHVPPTFGQGTKVEIERTVAAPSVFIFPPSDEQLKSGTASVVCLLNNFYPREAKVQWKVDNALQSGNSQESVTEQDSKDSTYSLSSTLTLSKADYEKHKVYACEVTHQGLSSPVTKSFNRGEC
notes: as for B1
B13: GpH7-A5/GpH7-B3 variant P329_16H/GpL16-k0 (antibody, human IgG1, kappa)
heavy 1: not shown
heavy 2: not shown
light: DIVMTQSPLSLPVTPGEPASISCQASESLVHSNRNTYLHWYLQKPGQSPQLLIYKVSNRFSGVPDRFSGSGSGTDFTLKISRVEAEDVGVYYCSQNTHVPPTFGQGTKVEIERTVAAPSVFIFPPSDEQLKSGTASVVCLLNNFYPREAKVQWKVDNALQSGNSQESVTEQDSKDSTYSLSSTLTLSKADYEKHKVYACEVTHQGLSSPVTKSFNRGEC
notes: as for B1
B14: GpH7-A5/GpH7-B3 variant P329_15Y/GpL16-k0 (antibody, human IgG1, kappa)
heavy 1: not shown
heavy 2: not shown
light: DIVMTQSPLSLPVTPGEPASISCQASESLVHSNRNTYLHWYLQKPGQSPQLLIYKVSNRFSGVPDRFSGSGSGTDFTLKISRVEAEDVGVYYCSQNTHVPPTFGQGTKVEIERTVAAPSVFIFPPSDEQLKSGTASVVCLLNNFYPREAKVQWKVDNALQSGNSQESVTEQDSKDSTYSLSSTLTLSKADYEKHKVYACEVTHQGLSSPVTKSFNRGEC
notes: as for B1
B15: GpH7-A5/GpH7-B3 variant P329_03V/GpL16-k0 (antibody, human IgG1, kappa)
heavy 1: not shown
heavy 2: not shown
light: DIVMTQSPLSLPVTPGEPASISCQASESLVHSNRNTYLHWYLQKPGQSPQLLIYKVSNRFSGVPDRFSGSGSGTDFTLKISRVEAEDVGVYYCSQNTHVPPTFGQGTKVEIERTVAAPSVFIFPPSDEQLKSGTASVVCLLNNFYPREAKVQWKVDNALQSGNSQESVTEQDSKDSTYSLSSTLTLSKADYEKHKVYACEVTHQGLSSPVTKSFNRGEC
notes: as for B1
B16: GpH7-A5/GpH7-B3 variant N325_12R/GpL16-k0 (antibody, human IgG1, kappa)
heavy 1: not shown
heavy 2: not shown
light: DIVMTQSPLSLPVTPGEPASISCQASESLVHSNRNTYLHWYLQKPGQSPQLLIYKVSNRFSGVPDRFSGSGSGTDFTLKISRVEAEDVGVYYCSQNTHVPPTFGQGTKVEIERTVAAPSVFIFPPSDEQLKSGTASVVCLLNNFYPREAKVQWKVDNALQSGNSQESVTEQDSKDSTYSLSSTLTLSKADYEKHKVYACEVTHQGLSSPVTKSFNRGEC
notes: as for B1

Key:
FcγRIIb = biological target: T1, FcγRIIb; assay: SPR (Biacore), FcγR passed over captured antibody; binding amount as % of control GpH7-A5/GpH7-B3/GpL16-k0 (=100)
Procedure: (§1) The heterodimerized antibodies He Abs in which one of the H chains was introduced with an alteration were assayed for their binding activities to each activating FcγR and inhibitory FcγR according to the method described in Example 4. […] The activating FcγRs in FIGS. 26, 27, 28, and 29 are FcγRIa, FcγRIIa (R), FcγRIIa (H), and FcγRIIIa, respectively.
(§2) Analysis of interaction between objective antibody and the FcγR was carried out using Biacore T100 (GE Healthcare). HBS-EP+ (GE Healthcare) was used as the running buffer, and the measurement temperature was set to 25° C. Chips produced by immobilizing the antigen peptide by the amine coupling method to a Series S Sencor Chip CM5 (GE Healthcare), or alternatively, chips produced by allowing preliminarily biotinylated antigen peptides to interact with and immobilize onto a Series S Sensor Chip SA (certified) (GE Healthcare) were used. Antibodies of interest were captured onto an antigen peptide-immobilized chip, and allowed to interact to each FcγR diluted with running buffer. To regenerate and repeatedly use the chip, the antibodies captured on the chip were washed off by reacting 10 mM glycine-HCl, pH 1.5.

FcγRIIa H [1] = biological target: T2, FcγRIIa H; assay: as above
Procedure: as §1, §2

FcγRIIa H [2] = biological target: T2, FcγRIIa H; assay: SPR (Biacore); He/Con_2aH divided by He/Con_2b (FcγRIIa H versus FcγRIIb)
Procedure: as §1, §2

Binder	He/Con_2b (FcγRIIb)	He/Con_2aH (FcγRIIa H [1])	He_2aH/2b (IIaH/IIb) (FcγRIIa H [2])
B1	58.2 relative, control = 100	73.7 relative, control = 100	1.27 ratio
B2	32.2 relative, control = 100	44.5 relative, control = 100	1.38 ratio
B3	40.5 relative, control = 100	65.7 relative, control = 100	1.62 ratio
B4	17.6 relative, control = 100	46.4 relative, control = 100	2.63 ratio
B5	16.9 relative, control = 100	46.2 relative, control = 100	2.74 ratio
B6	10.4 relative, control = 100	16.1 relative, control = 100	1.55 ratio
B7	29.1 relative, control = 100	43.7 relative, control = 100	1.5 ratio
B8	20.3 relative, control = 100	30.9 relative, control = 100	1.52 ratio
B9	37.9 relative, control = 100	62.4 relative, control = 100	1.65 ratio
B10	29.1 relative, control = 100	45.4 relative, control = 100	1.56 ratio
B11	41 relative, control = 100	67.3 relative, control = 100	1.64 ratio
B12	34.6 relative, control = 100	53.8 relative, control = 100	1.56 ratio
B13	39.1 relative, control = 100	66.1 relative, control = 100	1.69 ratio
B14	45.7 relative, control = 100	68.7 relative, control = 100	1.5 ratio
B15	38.5 relative, control = 100	60.4 relative, control = 100	1.57 ratio
B16	19.1 relative, control = 100	29.9 relative, control = 100	1.56 ratio
